Like-named read-outs stand apart in the source and are kept apart here.

B2: Fc-tagged human CD200 protein (Fc fusion)
chain: QVQVVTQDEREQLYTPASLKCSLQNAQEALIVTWQKKKAVSPENMVTFSENHGVVIQPAYKDKINITQLGLQNSTITFWNITLEDEGCYMCLFNTFGFGKISGTACLTVYVQPIVSLHYKFSEDHLNITCSATARPAPMVFWKVPRSGIENSTVTLSHPNGTTSVTSILHIKDPKNQVGKEVICQVLHLGTVTDFKQTVNKG
notes: also called hCD200; not shown: Fc tag

The target in test [1] is T1, human CD200R1a protein (soluble recombinant) (human, UniProt Q8TD46 29-265).
T1 construct: Soluble protein used in BLI; also called human CD200R1 isoform a; not shown: His tag implied by capture on anti-Penta-HIS biosensors
T1 sequence: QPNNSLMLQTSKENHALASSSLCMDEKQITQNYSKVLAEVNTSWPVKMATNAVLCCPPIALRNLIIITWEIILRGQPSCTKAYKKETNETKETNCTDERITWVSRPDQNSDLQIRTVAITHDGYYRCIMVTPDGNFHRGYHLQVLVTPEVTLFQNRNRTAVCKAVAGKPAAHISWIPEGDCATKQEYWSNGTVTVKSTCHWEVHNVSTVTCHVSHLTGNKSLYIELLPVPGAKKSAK
Nature of the test: BLI in-tandem competition on His-captured human CD200R1a; row = 1st Ab (400 nM); competitor (2nd Ab) PR007223. The procedure:
(§1) To determine if the anti-CD200R1 antibodies bind to human CD200R1a on different or approximate binding epitopes, epitope competition experiments for the anti-CD200R1 antibodies were performed by the ForteBlio Octet® RED96e platform. […] The in-tandem competition assay format was applied, and it contained two association steps. Firstly, the antigen-loaded biosensors bound to each antibody (i.e., First antibody, 1st Ab) at a saturating concentration of 400 nM for 300 seconds to reach equilibrium and then secondly bound to the competing antibodies (i.e., Second antibody, 2nd Ab) of 400 nM for 300 seconds. The second binding signals are recorded as the 100% signal of each antibody when the first antibodies are replaced by kinetic buffer. All the binding data were analyzed using ForteBlio Data Analysis 11.0 software. The inhibition rate was calculated by the following formula: […]

The target in test [2] is T1, human CD200R1a protein (soluble …). Nature of the test: BLI in-tandem competition on His-captured human CD200R1a; row = 1st Ab (400 nM); competitor (2nd Ab) PR006207. As for the experimental part: as §1
Test [3] has the same target. Nature of the test: BLI in-tandem competition on His-captured human CD200R1a; row = 1st Ab (400 nM); competitor (2nd Ab) PR007973. As for the experimental part: as §1
For test [4] the target is unchanged. Nature of the test: BLI in-tandem competition on His-captured human CD200R1a; row = 1st Ab (400 nM); competitor (2nd Ab) PR007221. The procedure: as §1
For test [5] the target is unchanged. Nature of the test: BLI (Octet), Fc-tagged hCD200 captured on anti-human Fc sensor, soluble CD200R1a as analyte, 1:1 fit.
Test [6] deals with B2. The description is as above.
Test [7] has as its target T2, human CD200R1 isoform a on CHOK1 cells (CHOK1/hCD200R1a) (human, UniProt Q8TD46 25-348).
T2 construct: also called CHOK1/CD200R1a
T2 sequence: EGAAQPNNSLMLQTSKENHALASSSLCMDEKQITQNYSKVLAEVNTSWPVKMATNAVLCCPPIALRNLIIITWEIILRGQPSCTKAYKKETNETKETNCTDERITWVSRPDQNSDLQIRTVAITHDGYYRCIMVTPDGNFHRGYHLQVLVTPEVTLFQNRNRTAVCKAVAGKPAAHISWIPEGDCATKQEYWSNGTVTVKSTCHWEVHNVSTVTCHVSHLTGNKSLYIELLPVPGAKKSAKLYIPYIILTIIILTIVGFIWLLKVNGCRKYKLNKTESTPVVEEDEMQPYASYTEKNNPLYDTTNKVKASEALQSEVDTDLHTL
Nature of the test: flow cytometry, CHOK1/hCD200R1a cells (FITC-Mean); table beside the curves, head without unit, x axis Log [Ab] (nM).

Test [8] addresses T3, Cynomolgus macaques CD200R1 isoform a on CHOK1 cells (CHOK1/cynoCD200R1a) (Cynomolgus macaques).
T3 chain: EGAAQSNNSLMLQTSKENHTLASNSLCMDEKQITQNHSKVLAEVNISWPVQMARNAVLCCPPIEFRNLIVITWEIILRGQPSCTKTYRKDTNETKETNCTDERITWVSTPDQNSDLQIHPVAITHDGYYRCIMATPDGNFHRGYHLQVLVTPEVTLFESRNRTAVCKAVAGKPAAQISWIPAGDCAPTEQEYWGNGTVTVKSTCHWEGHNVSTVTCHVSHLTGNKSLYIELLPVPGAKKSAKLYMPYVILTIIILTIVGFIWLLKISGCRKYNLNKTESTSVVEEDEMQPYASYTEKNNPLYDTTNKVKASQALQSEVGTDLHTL
Nature of the test: flow cytometry, CHOK1/cynoCD200R1a cells (APC-A Mean); table beside the curves.

The target of test [9] is T2, human CD200R1 isoform a on CHOK1 cells …. Nature of the test: flow cytometry blocking assay: biotin-labelled human CD200 binding to CHOK1/hCD200R1a cells; y axis Inhibition %. As for the experimental part:
(§2) In brief, CHOK1/hCD200R1a cells were digested and resuspended in 2% BSA in PBS. […] The cells were placed at 4° C. and incubated for 1 hour in the dark. […] 100 μL/well of pre-cooled PBS containing 2% BSA was added to rinse the cells twice, centrifugation was performed at 500 g, 4° C. for 5 minutes, and the supernatant was discarded. Fluorescent secondary antibody (PE Streptavidin, BD, Cat #: 554061, 1:200) was added at 100 μL/well, and incubation was performed at 4° C. for 30 minutes in the dark. The cells were washed twice with 200 μL/well of pre-cooled PBS, and were centrifuged at 500 g, 4° C. for 5 minutes, and the supernatant was discarded. Finally, 200 μL/well of pre-cooled PBS was used to resuspend the cells, and the fluorescence signal values were read using ACEA Novocyte 3000 flow cytometer. IC50 values were calculated.

For test [10] the target is unchanged. Nature of the test: flow cytometry blocking assay: antibody titrated against biotin-labelled human CD200 binding to CHOK1/hCD200R1a cells; head prints EC50 without unit, x axis Log [Ab] (nM), y axis Inhibition %. As for the experimental part:
as §2

Test [11] has as its target T4, CD200R1a on PathHunter Jurkat CD200R1a signaling cells (Eurofins DiscoverX, 93-1136C19) (human, UniProt Q8TD46 25-348).
T4 sequence: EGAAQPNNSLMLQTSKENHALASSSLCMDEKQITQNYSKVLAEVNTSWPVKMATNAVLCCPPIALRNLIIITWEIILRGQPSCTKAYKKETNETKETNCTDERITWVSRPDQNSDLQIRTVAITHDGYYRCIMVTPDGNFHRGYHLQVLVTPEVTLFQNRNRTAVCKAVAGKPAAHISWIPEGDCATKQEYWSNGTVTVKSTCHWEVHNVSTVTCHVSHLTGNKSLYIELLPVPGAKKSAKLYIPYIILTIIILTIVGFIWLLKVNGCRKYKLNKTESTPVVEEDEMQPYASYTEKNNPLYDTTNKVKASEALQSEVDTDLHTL
Nature of the test: cell-based or functional assay.

Test [12] has as its target T4, CD200R1a on PathHunter Jurkat CD200R1a …. Nature of the test: cell-based or functional assay. This is another data set of the same source.
For test [13], the target named is T2, human CD200R1 isoform a on CHOK1 cells …. Nature of the test: flow cytometry, CHOK1/hCD200R1a cells (FITC-Mean); table beside the curves. The procedure: This example is intended to investigate the in vitro binding activity of human anti-CD200R1 monoclonal antibodies to human/Cynomolgus macaques CD200R1a expressed on the surface of cells. The anti-CD200R1 antibodies were produced as described in Example 3.4 and the binding experiments at the cell level were performed using CHOK1/hCD200R1a and CHOK1-cynoCD200R1a.
Briefly, CHOK1/hCD200R1a cells and CHOK1-cynoCD200R1a cells were digested, and collected, and then were resuspended in PBS containing 2% BSA, respectively. The cell density was adjusted to 1×10⁶ cells/mL. The cells were seeded in a 96-well V-bottom plate (Corning, #3894) at 100 μL/well, followed by the addition of test antibodies and reference antibodies in a series diluted concentration, each at 100 μL/well. The cells were incubated away from light at 4° C. for 1 h. Thereafter, the cells in each well were rinsed twice with 100 μL of pre-cooled PBS containing 2% BSA, and centrifuged at 500 g at 4° C. for 5 min, and then the supernatant was discarded. 100 μL of fluorescent secondary antibody (Alexa Fluor 488-conjugated AffiniPure Goat Anti-Human IgG, Fcγ Fragment Specific, Jackson, #109-545-098, diluted in a 1:1000 ratio) was added in each well, and the plate was incubated away from light at 4° C. for 1 h. The cells in each well were rinsed twice with 100 μL of pre-cooled PBS containing 2% BSA, and centrifuged at 500 g at 4° C. for 5 min, and then the supernatant was discarded. Finally, the cells in each well were resuspended in 200 μL of pre-cooled PBS containing 2% BSA, and the fluorescence signal values were read using a BD CantoII flow cytometer.

B1: PR006207 (antibody, human IgG1, kappa, L234A L235A, V domains shown)
VH: QVQLVQSGAEVKKPGASVKVSCKASGFSFSSGYYMAWVRQAPGQGLEWMGLIGVGSGSLWYAQKFQGRVTMTRDTSTSTVYMELSSLRSEDTAVYYCARHFALSDPFNLWGQGTLVTVSS
VL: EIVLTQSPDFQSVTPKEKVTITCQASESIDSYLLWYQQKPDQSPKLLIKQASTLASGVPSRFSGSGSGTDFTLTINSLEAEDAATYYCQNYYDISSNDFGGGTKVEIKR
notes: also called recombinant antibody of I-4P
Regarding B1, the “Inhibition ratio (%)” value in [1] was -38.6%; in [2], 97.6%; in test [3], -39.9%; in [4] it was -36.2%.
In the case of B2, in test [5], the Kd came to 77.1 nM, the koff turned out to be 0.0177 s⁻¹ and the kon stood at 230000 M⁻¹ s⁻¹.

B3: Cyno CD200R1a-His (receptor)
chain: EGAAQSNNSLMLQTSKENHTLASNSLCMDEKQITQNHSKVLAEVNISWPVQMARNAVLCCPPIEFRNLIVITWEIILRGQPSCTKTYRKDTNETKETNCTDERITWVSTPDQNSDLQIHPVAITHDGYYRCIMATPDGNFHRGYHLQVLVTPEVTLFESRNRTAVCKAVAGKPAAQISWIPAGDCAPTEQEYWGNGTVTVKSTCHWEGHNVSTVTCHVSHLTGNKSLYIELLPVPGAKKSAK
notes: Soluble protein used in BLI; also called Cynomolgus macaques CD200R1a recombinant protein; not shown: His tag
In test [6], B3 yielded a Kd of 197 nM, a koff of 0.0316 s⁻¹ and a kon of 161000 M⁻¹ s⁻¹.

B4: PR006895 (antibody, human IgG1, kappa)
heavy: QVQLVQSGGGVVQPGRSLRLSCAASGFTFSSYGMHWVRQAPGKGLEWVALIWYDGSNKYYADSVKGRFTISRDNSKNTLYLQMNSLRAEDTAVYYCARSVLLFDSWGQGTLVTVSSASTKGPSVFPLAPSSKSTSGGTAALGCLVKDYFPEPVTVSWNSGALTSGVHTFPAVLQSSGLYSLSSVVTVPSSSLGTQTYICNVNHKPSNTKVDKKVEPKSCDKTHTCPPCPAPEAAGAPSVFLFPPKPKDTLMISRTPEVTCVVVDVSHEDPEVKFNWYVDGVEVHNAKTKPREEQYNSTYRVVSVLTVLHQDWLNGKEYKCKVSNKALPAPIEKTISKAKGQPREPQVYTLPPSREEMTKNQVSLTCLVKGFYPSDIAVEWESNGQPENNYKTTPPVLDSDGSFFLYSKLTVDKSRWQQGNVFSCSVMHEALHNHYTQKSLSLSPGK
light: DIQMTQSPPSLSASVGDRVTITCRASQSISSYLNWFQQKAGKAPKLLISATSNLQSGVPSRFSGSGSGTDFTLTISSLQPEDLATYYCQQSYSSPYTFGQGTKVEIKRTVAAPSVFIFPPSDEQLKSGTASVVCLLNNFYPREAKVQWKVDNALQSGNSQESVTEQDSKDSTYSLSSTLTLSKADYEKHKVYACEVTHQGLSSPVTKSFNRGEC
notes: Fc variant of PR006480: human IgG1 with L234A, L235A, G237A (EU)
B4: the EC50 in [7] stood at 0.172 nM; in test [8], 20.5 nM; in [10], 0.339 nM. Further, the “MFI (MAX)” value in test [8] came out at 33400. In [9], the “Blocking(Max)” value was determined as 49.8%. For the same molecule, the “IC50 of the inhibition of CD200-induced PathHunter Jurkat CD200R1a luminescence (CHOK1/hCD200 cells as CD200 source)” value in [11] is 0.988 nM; in [12], 0.886 nM. For the same molecule, the “MFI(Max)” value in test [13] was 8410.

B5: PR007442 (antibody, human IgG1, kappa)
heavy: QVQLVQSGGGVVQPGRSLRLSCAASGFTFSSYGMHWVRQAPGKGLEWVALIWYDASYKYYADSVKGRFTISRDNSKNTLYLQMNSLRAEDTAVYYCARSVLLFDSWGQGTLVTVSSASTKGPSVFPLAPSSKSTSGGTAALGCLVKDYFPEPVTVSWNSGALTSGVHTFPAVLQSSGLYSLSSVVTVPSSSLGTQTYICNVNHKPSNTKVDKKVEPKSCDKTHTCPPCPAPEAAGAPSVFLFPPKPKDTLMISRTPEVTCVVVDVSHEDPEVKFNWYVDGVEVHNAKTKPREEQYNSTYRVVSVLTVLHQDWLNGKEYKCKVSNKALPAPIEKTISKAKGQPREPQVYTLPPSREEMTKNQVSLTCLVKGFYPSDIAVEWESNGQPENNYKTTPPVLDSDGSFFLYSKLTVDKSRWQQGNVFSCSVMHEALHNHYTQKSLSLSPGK
light: DIQMTQSPPSLSASVGDRVTITCRASQSISSYLNWFQQKAGKAPKLLISATSNLQSGVPSRFSGSGSGTDFTLTISSLQPEDLATYYCQQTLSSPYTFGQGTKVEIKRTVAAPSVFIFPPSDEQLKSGTASVVCLLNNFYPREAKVQWKVDNALQSGNSQESVTEQDSKDSTYSLSSTLTLSKADYEKHKVYACEVTHQGLSSPVTKSFNRGEC
notes: PTM variant of PR006895 (human IgG1)
Take B5: the figures for the concentration giving a half-maximal response (EC50) in test [7], in [8] and in [10] were 0.108 nM, 6.86 nM and 0.19 nM, respectively. Moreover, in test [8], the “MFI (MAX)” value is 50100. For the same molecule, the “Blocking(Max)” value in test [9] worked out at 80%. Further, the “IC50 of the inhibition of CD200-induced PathHunter Jurkat CD200R1a luminescence (CHOK1/hCD200 cells as CD200 source)” value in [11] was found to be 0.844 nM. For the same molecule, the “MFI(Max)” value in [13] is 8850.

The values are drawn from patent US20250313626A1 (HARBOUR BIOMED SHANGHAI, published 2025).
